Laboratory results published in patent publication US20240150441A1.

What was measured:
[1] = biological target: spike (S) protein of the BA.4/5 SARS-CoV-2 pseudovirus (SARS-CoV-2, Omicron subvariant BA.4/5) (UniProt P0DTC2); assay: cell-based or functional assay
[2] = biological target: spike (S) protein of the authentic parental Omicron variant (B.1.1.529) of SARS-CoV-2 (SARS-CoV-2, B.1.1.529 (Omicron) variant) (UniProt P0DTC2); assay: cell-based or functional assay

Substance: plant-made cilgavimab (pCilgavimab) (antibody)
- neutralization of BA.4/5 pseudovirus, luciferase reporter assay, IC50 [1]: 0.102 µg/mL
- neutralization of authentic B.1.1.529 (Omicron) virus, foci-forming assay, IC50 [2]: 2.23 µg/mL
